Test results as given in patent publication US20210079037A1 (TECHNISCHE UNIVERSIT T M NCHEN, published 2021).

What was measured:
[1] = biological target: T1, recombinant human serum albumin (HSA) produced in rice (Sigma-Aldrich) (human, UniProt P02768 25-609); assay: ELISA, capture of the ABD fusion on HSA-coated plate
T1 construct: also called recombinant HSA
Procedure: (§1) ELISA was performed at ambient temperature in a 96-well Maxisorb microtiter plate (Nunc, Langenselbold, Germany).
(§2) Then, the wells were blocked with […] Roti-Block (Carl Roth, Karlsruhe, Germany) diluted 1:10 in ddH₂O for 1 h and washed three times with PBS containing 0.1% v/v Tween 20 (PBS/T). After that, the purified ProtL^Caf-ABD fusion protein from Example 11 was applied in a dilution series in PBS/T and incubated for 1 h to effect complex formation between the ABD moiety and the pre-adsorbed HSA. The wells were then washed three times with PBS/T and incubated with 50 μl of a 1:1000 dilution in PBS/T of the aforementioned mouse anti-6×His Ig-AP conjugate.

[2] = biological target: T2, mouse anti-6×His antibody alkaline phosphatase (AP) conjugate (Arigo Biolaboratories); assay: ELISA: ProtL-ABD in a dilution series captured on coated HSA, mouse anti-6xHis Ig-AP conjugate (1:1000) applied, kept in daylight, AP activity as dA/dt [left graph]
T2 construct: also called mouse anti-6×His Ig-AP conjugate; Ig-AP conjugate
Procedure: as §1, §2

[3] = biological target: T2, mouse anti-6×His antibody alkaline …; assay: ELISA: ProtL-ABD in a dilution series captured on coated HSA, mouse anti-6xHis Ig-AP conjugate (1:1000) applied, UV light of 365 nm for 5 min before the washes, AP activity as dA/dt [left graph]
Procedure: as §1, §2

T1 sequence (P02768 25-609 limits assumed): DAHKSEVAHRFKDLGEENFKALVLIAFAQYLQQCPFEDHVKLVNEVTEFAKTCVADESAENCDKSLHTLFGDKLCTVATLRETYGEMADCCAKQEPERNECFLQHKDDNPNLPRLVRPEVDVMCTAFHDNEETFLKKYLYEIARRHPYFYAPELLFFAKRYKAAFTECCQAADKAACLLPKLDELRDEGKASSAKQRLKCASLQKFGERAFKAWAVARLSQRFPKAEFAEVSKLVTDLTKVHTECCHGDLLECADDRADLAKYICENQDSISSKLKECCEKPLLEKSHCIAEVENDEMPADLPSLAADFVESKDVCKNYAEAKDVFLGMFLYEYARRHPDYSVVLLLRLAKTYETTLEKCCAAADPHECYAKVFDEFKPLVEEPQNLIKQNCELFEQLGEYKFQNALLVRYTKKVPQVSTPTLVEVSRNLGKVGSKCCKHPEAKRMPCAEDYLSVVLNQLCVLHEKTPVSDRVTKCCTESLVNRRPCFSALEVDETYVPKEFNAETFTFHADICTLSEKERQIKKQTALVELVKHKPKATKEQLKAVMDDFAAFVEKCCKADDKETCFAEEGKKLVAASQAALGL

B1: ProtL-ABD fusion protein (other)
chain: MKEEVTIKVNLIFADGKTQTAEFKGTFEEATAKAYAYADLLAKENGEYTADLEDGGNTINIKFAGGAVDANSLAEAKVLANRELDKYGVSDYYKNLINNAKTVEGVKALIDEILAALP
notes: also called protein L-ABD fusion protein; unmodified ProtL-ABD
B1 was tested, and the binding result [1] was “binds”, the “EC50 (read off the curve)” value [2] was ~40 nM and the “EC50 (read off the curve)” value [3] was ~40 nM.
